± gives the standard deviation of the averaged measurements.
Test system: ATP
Experiment: switch fluorescence ratio, 500 uM ATP over buffer (Cy3 cluster intensity, sum of 5 cycles each) (fold (ratio)); higher = stronger signal-on switching upon ATP binding; sequences stand for … in TCGTCGGCAGCGTCAGATGTGTATAAGAGACAGTTTTTTTTTTTTTTTTTTTTTTTTT…TC
Details: aptamer strand: ATP DNA aptamer (quencher-CACCTGGGGGAGTATTGCGGAGGAAGG + anchor), 100 nM annealed; ATP concentration: 500 uM
Method in brief: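 Values give the fluorescence ratio for each switch-domain sequence, averaged from per-cluster ratios of summed target-cycle to summed buffer-cycle Cy3 intensity. The Cy3-labelled switching-strand clusters sat on a modified Illumina MiSeq flow-cell, were annealed to 100 nM quencher-labelled ATP aptamer, and were imaged in selection buffer, then after 15 min with 500 uM ATP at 22 °C. Five cycles ran with NaOH stripping and re-annealing between them, and clusters outside 100-1000 RFU were excluded.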
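Further: ATP exposure 15 min at 22 °C before imaging.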

| Sequence | switch fluorescence ratio |
| --- | --- |
| AAATTTTGAG | 1.02 ± 0.032 |
| AAATTTTTAC | 1.02 ± 0.027 |
| AAATTTTTC | 1 ± 0.021 |
| AACAAAACAA | 1.04 ± 0.055 |
| AACAAAGAGA | 1.02 ± 0.026 |
| AACAACTCTC | 1.06 ± 0.017 |
| AACAAGCCCA | 1.008 ± 0.0066 |
| AACAATTGGG | 0.978 ± 0.0039 |
| AACACGGAAC | 1.29 ± 0.027 |
| AACAGATCTG | 1.02 ± 0.014 |
| AACAGCACGA | 1.28 ± 0.1 |
| AACAGGAAAT | 0.9596 ± 0.0032 |
| AACAGGATCG | 1.01 ± 0.053 |
| AACAGGGACC | 1.04 ± 0.017 |
| AACAGGGGGT | 1.01 ± 0.032 |
| AACAGGGGTG | 1.09 ± 0.015 |
| AACAGGTTTT | 1.003 ± 0.0062 |
| AACAGTTAGG | 0.9762 ± 0.0069 |
| AACATAAAAA | 1.26 ± 0.4 |
| AACATATATT | 1.02 ± 0.028 |
| AACATCTAGC | 0.994 ± 0.031 |
| AACATGGGGG | 1.01 ± 0.023 |
| AACATGGTGC | 1.01 ± 0.011 |
| AACATTAAGC | 1.04 ± 0.021 |
| AACATTCCTT | 1.23 ± 0.08 |

| Sequence | switch fluorescence ratio |
| --- | --- |
| AACCAGGATT | 0.9714 ± 0.0074 |
| AACCAGGGGG | 1.058 ± 0.0084 |
| AACCATACTA | 1.19 ± 0.028 |
| AACCCAAGGG | 1.09 ± 0.055 |
| AACCCGGGAG | 1.17 ± 0.2 |
| AACCGCGGGT | 1.03 ± 0.018 |
| AACCGCGTTG | 1.06 ± 0.012 |
| AACCGCTATA | 3.11 ± 1 |
| AACCGGATCG | 1.034 ± 0.01 |
| AACCGTATGG | 1 ± 0.022 |
| AACCGTCACA | 1.202 ± 0.0059 |
| AACCGTGGGG | 1.05 ± 0.042 |
| AACCGTGGTG | 1.05 ± 0.073 |
| AACCGTTCGA | 1.07 ± 0.046 |
| AACCGTTGGT | 1.01 ± 0.014 |
| AACCTCACGC | 1.73 ± 0.2 |
| AACCTGGGGG | 1.1 ± 0.15 |
| AACCTTTGTT | 1.06 ± 0.083 |
| AACCTTTTTT | 1.03 ± 0.0037 |
| AACGAAGTCG | 1 ± 0.015 |
| AACGACGGGG | 1.01 ± 0.033 |
| AACGATATTC | 1.07 ± 0.03 |
| AACGATCGCT | 1.04 ± 0.0082 |
| AACGATTTTG | 1.03 ± 0.016 |
| AACGATTTTT | 1.007 ± 0.0084 |

| Sequence | switch fluorescence ratio |
| --- | --- |
| AACGCCGAGT | 0.9816 ± 0.0097 |
| AACGCGGCTG | 0.9967 ± 0.0046 |
| AACGCGTCTG | 1.012 ± 0.0037 |
| AACGCTTCAC | 1.65 ± 0.054 |
| AACGGACTTA | 1.25 ± 0.044 |
| AACGGCGCAT | 1.02 ± 0.052 |
| AACGGCGGGG | 1 ± 0.017 |
| AACGGGACGT | 0.961 ± 0.06 |
| AACGGGGAAC | 0.986 ± 0.014 |
| AACGGGGGCA | 0.925 ± 0.025 |
| AACGGGGTGT | 1.062 ± 0.0093 |
| AACGGGTACC | 1.09 ± 0.088 |
| AACGGTTGGC | 0.975 ± 0.017 |
| AACGTACGTT | 1.14 ± 0.015 |
| AACGTATATA | 1.13 ± 0.026 |
| AACGTCAGTT | 1.003 ± 0.0017 |
| AACGTCTTT | 1.03 ± 0.071 |
| AACGTGTTGT | 1.02 ± 0.077 |
| AACTAATTTT | 0.9961 ± 0.0024 |
| AACTACAGGC | 1.18 ± 0.11 |
| AACTACGCTT | 1.48 ± 0.099 |
| AACTACGTCT | 0.986 ± 0.055 |
| AACTAGATG | 0.982 ± 0.025 |
| AACTAGGGGA | 1.11 ± 0.13 |
| AACTATGCCT | 1.03 ± 0.037 |

| Sequence | switch fluorescence ratio |
| --- | --- |
| AACTCGGATC | 1.01 ± 0.042 |
| AACTCGGGGG | 0.999 ± 0.027 |
| AACTGACGAA | 1.29 ± 0.019 |
| AACTGGAGGA | 0.9715 ± 0.002 |
| AACTGGCTGC | 0.993 ± 0.061 |
| AACTGTGTG | 0.987 ± 0.043 |
| AACTTAGTGG | 0.996 ± 0.028 |
| AACTTCGGTG | 0.984 ± 0.014 |
| AACTTCTGCC | 1.025 ± 0.0013 |
| AACTTGAAAT | 1.47 ± 0.69 |
| AACTTGTTTT | 1.02 ± 0.032 |
| AACTTTAACT | 1.04 ± 0.014 |
| AACTTTACTC | 1.55 ± 0.095 |
| AACTTTAGTC | 0.994 ± 0.04 |
| AACTTTAGTG | 0.991 ± 0.013 |
| AACTTTAGTT | 1.02 ± 0.027 |
| AACTTTTAAT | 1.019 ± 0.0032 |
| AAGAAATCGG | 1.01 ± 0.018 |
| AAGAACGGCG | 1.01 ± 0.052 |
| AAGAAGAAAT | 1.04 ± 0.066 |
| AAGAAGAGGT | 1.15 ± 0.17 |
| AAGAAGCTTT | 1.27 ± 0.38 |
| AAGAAGGTCC | 1.01 ± 0.019 |
| AAGAAGTGTT | 1.003 ± 0.0039 |
| AAGAATAAAT | 1 ± 0.029 |

| Sequence | switch fluorescence ratio |
| --- | --- |
| AAGAATATGC | 0.978 ± 0.027 |
| AAGACAGCGA | 1.41 ± 0.57 |
| AAGACGCTAA | 1.18 ± 0.026 |
| AAGACGTAGG | 1.06 ± 0.034 |
| AAGACTAGTT | 0.999 ± 0.03 |
| AAGACTCGGT | 0.9518 ± 0.0012 |
| AAGAGAAAGT | 0.998 ± 0.028 |
| AAGAGATAGT | 1 ± 0.0076 |
| AAGAGATGTG | 0.985 ± 0.024 |
| AAGAGGAAAA | 1 ± 0.024 |
| AAGAGGAAGC | 0.984 ± 0.049 |
| AAGAGGCGGA | 1 ± 0.026 |
| AAGAGGGATG | 0.988 ± 0.043 |
| AAGAGGGCAG | 0.992 ± 0.0081 |
| AAGAGGGGCT | 1.015 ± 0.0018 |
| AAGAGGGGGC | 0.986 ± 0.045 |
| AAGAGGGGTT | 1.03 ± 0.062 |
| AAGAGGTCTC | 0.9681 ± 0.0023 |
| AAGAGGTGGG | 0.99 ± 0.024 |
| AAGAGTAAGC | 0.963 ± 0.013 |
| AAGAGTCGGG | 0.972 ± 0.051 |
| AAGATACAGA | 1.07 ± 0.016 |
| AAGATAGCGG | 0.9978 ± 6.2e-05 |
| AAGATCAATA | 0.9967 ± 0.0044 |
| AAGATCACGG | 0.971 ± 0.057 |

| Sequence | switch fluorescence ratio |
| --- | --- |
| AAGATCATCT | 1.01 ± 0.023 |
| AAGATCATTG | 0.98 ± 0.041 |
| AAGATCCTTT | 0.986 ± 0.025 |
| AAGATCTCTA | 1.01 ± 0.015 |
| AAGATCTGCC | 1.04 ± 0.021 |
| AAGATGAAT | 0.975 ± 0.04 |
| AAGATGATGT | 0.986 ± 0.03 |
| AAGATGCGTA | 0.978 ± 0.016 |
| AAGATGCTTG | 0.998 ± 0.038 |
| AAGATGGTAG | 0.971 ± 0.038 |
| AAGATTAGTG | 0.9828 ± 0.0067 |
| AAGATTGGGT | 1 ± 0.049 |
| AAGCAATTAT | 1.53 ± 0.11 |
| AAGCAGGGGC | 1.14 ± 0.16 |
| AAGCAGTACC | 3.24 ± 0.72 |
| AAGCATAGGG | 1.02 ± 0.015 |
| AAGCATAGTC | 1.06 ± 0.036 |
| AAGCATAGTT | 0.993 ± 0.011 |
| AAGCATGGGC | 1.02 ± 0.029 |
| AAGCCCAGGG | 1.403 ± 0.0054 |
| AAGCCGCTAG | 1.11 ± 0.026 |
| AAGCGACTCG | 1.006 ± 0.0056 |
| AAGCGAGGGC | 1.06 ± 0.035 |
| AAGCGCAGAC | 2.32 ± 0.079 |
| AAGCGCTGTG | 1.03 ± 0.047 |

| Sequence | switch fluorescence ratio |
| --- | --- |
| AAGCGGAAGG | 1.05 ± 0.02 |
| AAGCGGAGAT | 1.02 ± 0.0065 |
| AAGCGGGGGG | 1.03 ± 0.015 |
| AAGCGGGTGG | 1.05 ± 0.028 |
| AAGCGGTTG | 1.005 ± 0.006 |
| AAGCGTAAAA | 0.979 ± 0.024 |
| AAGCTAAATG | 1.01 ± 0.05 |
| AAGCTAGGGA | 1.01 ± 0.05 |
| AAGCTCCATT | 0.967 ± 0.016 |
| AAGCTCGTTG | 1.01 ± 0.031 |
| AAGCTGAAGT | 1.03 ± 0.035 |
| AAGCTGACAG | 1.01 ± 0.013 |
| AAGCTGTTAC | 1.6 ± 0.081 |
| AAGCTTACGG | 1.06 ± 0.056 |
| AAGCTTGCCT | 0.9871 ± 0.0013 |
| AAGCTTGGCT | 0.965 ± 0.028 |
| AAGGAAAACG | 0.969 ± 0.021 |
| AAGGAAGACA | 0.995 ± 0.03 |
| AAGGAAGCGT | 0.9883 ± 0.0045 |
| AAGGAAGGCC | 1.0145 ± 0.00052 |
| AAGGAAGTTT | 1.06 ± 0.18 |
| AAGGAATGGT | 1.05 ± 0.041 |
| AAGGAATTGG | 0.992 ± 0.0042 |
| AAGGACTGAA | 0.9994 ± 0.0078 |
| AAGGACTTGG | 1.01 ± 0.014 |

| Sequence | switch fluorescence ratio |
| --- | --- |
| AAGGAGCAGT | 0.985 ± 0.13 |
| AAGGAGGATT | 1 ± 0.028 |
| AAGGAGGCTT | 1.05 ± 0.066 |
| AAGGAGGGGC | 1.06 ± 0.13 |
| AAGGAGGGT | 0.9965 ± 0.0096 |
| AAGGAGGTCA | 0.977 ± 0.021 |
| AAGGATAAAC | 1.01 ± 0.039 |
| AAGGATATGG | 1.02 ± 0.016 |
| AAGGATGCGA | 1.039 ± 0.0079 |
| AAGGATGGCC | 1.01 ± 0.021 |
| AAGGATGTTG | 0.9998 ± 0.0017 |
| AAGGATTAAT | 0.987 ± 0.016 |
| AAGGATTAGC | 1.04 ± 0.11 |
| AAGGATTCGC | 1 ± 0.072 |
| AAGGATTTTG | 0.994 ± 0.022 |
| AAGGCAAATA | 1.04 ± 0.037 |
| AAGGCAAGAT | 1.04 ± 0.064 |
| AAGGCAAGGG | 1.01 ± 0.028 |
| AAGGCAAGTG | 0.989 ± 0.054 |
| AAGGCCTTCT | 0.994 ± 0.011 |
| AAGGCGGATA | 0.96 ± 0.013 |
| AAGGCGGGG | 0.991 ± 0.011 |
| AAGGCGTACT | 1.03 ± 0.026 |
| AAGGCTAAAA | 1.016 ± 0.0059 |
| AAGGCTAAGC | 1.024 ± 0.0026 |
